Here are results for 18 compounds from patent US9845340B2, “Peptides that specifically bind HGF receptor (cMet) and uses thereof” (Dyax Corp., priority 2003, dated 2017).

In one assay the target is cMet-Fc fusion protein (Homo sapiens, UniProt P08581). Description: Protein phage ELISA: peptide-displaying phage binding to soluble cMet-Fc versus TRAIL-Fc. To be noted: phage isolate; cMet-Fc vs. TRAIL-Fc. The gist of the method: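 Phage displaying selected peptides were incubated 2 h at room temperature on wells coated with 0.5 μg/mL cMet-Fc, with TRAIL-Fc coating as the unrelated-Fc specificity control.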
Sequence of cMet-Fc fusion protein (P08581 25-307 limits assumed): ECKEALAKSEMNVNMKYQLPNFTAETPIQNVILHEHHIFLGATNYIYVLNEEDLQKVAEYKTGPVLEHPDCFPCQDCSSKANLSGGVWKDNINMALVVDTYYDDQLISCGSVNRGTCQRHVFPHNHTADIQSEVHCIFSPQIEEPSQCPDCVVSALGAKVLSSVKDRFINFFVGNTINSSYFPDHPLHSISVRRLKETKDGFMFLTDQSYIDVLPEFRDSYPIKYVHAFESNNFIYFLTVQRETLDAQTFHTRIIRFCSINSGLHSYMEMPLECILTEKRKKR
Sequence of cMet-Fc fusion protein (P08581 with tags, fused parts or gaps limits assumed): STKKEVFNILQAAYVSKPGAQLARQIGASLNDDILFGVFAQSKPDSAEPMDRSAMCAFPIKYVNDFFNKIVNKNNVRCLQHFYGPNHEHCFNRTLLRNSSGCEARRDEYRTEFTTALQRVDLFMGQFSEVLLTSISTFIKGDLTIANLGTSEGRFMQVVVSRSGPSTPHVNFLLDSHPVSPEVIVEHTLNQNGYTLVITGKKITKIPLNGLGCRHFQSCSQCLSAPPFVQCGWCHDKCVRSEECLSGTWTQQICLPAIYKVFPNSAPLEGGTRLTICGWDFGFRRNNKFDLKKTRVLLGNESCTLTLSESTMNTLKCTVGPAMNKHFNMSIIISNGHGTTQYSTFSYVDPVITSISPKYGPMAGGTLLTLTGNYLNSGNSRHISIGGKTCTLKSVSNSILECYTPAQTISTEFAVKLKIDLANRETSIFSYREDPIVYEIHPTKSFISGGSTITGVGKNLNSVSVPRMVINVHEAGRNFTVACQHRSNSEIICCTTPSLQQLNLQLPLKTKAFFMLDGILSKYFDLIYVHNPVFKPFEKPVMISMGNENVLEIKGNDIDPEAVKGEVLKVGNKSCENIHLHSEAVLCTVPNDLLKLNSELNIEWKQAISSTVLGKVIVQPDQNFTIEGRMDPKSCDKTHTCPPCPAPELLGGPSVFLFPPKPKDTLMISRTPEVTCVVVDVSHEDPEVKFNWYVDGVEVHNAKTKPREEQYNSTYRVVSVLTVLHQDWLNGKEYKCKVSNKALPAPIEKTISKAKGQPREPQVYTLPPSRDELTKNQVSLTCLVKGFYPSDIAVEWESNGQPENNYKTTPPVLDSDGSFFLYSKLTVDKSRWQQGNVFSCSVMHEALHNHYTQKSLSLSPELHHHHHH
Background: An ELISA detects its analyte on a solid surface through an enzyme-linked reagent.

For assay [1], the target named is T1, 3T3 cells that over-express human cMet (Homo sapiens, UniProt P08581).
T1 construct: expressed in transfected cells; host or cells: 3T3 cells
T1 sequence (P08581 25-1390): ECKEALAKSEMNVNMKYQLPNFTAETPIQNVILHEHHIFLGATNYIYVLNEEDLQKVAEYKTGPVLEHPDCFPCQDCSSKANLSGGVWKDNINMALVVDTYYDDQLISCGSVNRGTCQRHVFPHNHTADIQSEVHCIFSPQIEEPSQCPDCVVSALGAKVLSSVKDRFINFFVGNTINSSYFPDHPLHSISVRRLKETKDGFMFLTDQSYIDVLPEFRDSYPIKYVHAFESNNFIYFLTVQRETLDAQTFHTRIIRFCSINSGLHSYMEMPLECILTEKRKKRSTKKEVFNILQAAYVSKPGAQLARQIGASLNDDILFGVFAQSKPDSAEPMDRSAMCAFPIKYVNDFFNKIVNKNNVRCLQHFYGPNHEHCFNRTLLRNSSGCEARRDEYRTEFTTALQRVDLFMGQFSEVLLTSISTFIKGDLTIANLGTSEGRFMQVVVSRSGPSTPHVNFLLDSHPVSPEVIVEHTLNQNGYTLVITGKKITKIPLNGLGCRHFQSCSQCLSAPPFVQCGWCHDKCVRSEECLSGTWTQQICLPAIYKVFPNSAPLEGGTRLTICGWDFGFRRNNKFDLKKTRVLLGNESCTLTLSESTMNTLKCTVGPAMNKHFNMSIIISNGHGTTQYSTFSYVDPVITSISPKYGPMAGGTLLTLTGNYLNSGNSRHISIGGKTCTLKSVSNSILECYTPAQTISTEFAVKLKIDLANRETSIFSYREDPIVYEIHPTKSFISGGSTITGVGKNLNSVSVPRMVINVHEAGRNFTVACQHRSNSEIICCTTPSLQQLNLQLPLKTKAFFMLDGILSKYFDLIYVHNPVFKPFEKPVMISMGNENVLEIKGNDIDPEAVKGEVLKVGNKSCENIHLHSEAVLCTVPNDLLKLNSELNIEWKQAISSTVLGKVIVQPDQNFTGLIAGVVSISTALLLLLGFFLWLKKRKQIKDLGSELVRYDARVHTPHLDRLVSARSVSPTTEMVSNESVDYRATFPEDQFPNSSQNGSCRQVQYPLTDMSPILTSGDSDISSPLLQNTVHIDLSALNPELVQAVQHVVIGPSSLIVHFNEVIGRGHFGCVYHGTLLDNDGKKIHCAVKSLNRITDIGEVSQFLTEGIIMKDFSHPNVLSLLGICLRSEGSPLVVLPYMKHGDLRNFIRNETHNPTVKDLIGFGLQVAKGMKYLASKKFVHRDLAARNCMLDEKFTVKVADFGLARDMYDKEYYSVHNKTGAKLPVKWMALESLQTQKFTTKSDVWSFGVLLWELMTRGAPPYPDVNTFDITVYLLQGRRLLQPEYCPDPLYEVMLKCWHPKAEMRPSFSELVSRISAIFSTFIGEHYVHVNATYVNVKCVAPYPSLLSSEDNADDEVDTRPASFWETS
Description: Whole cell ELISA of peptide-displaying phage. The format is cell-based. To be noted: phage isolate; 3T3 cells expressing human cMet vs. non-expressing 3T3 cells. The procedure, abridged: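 Phage displaying peptides, pre-blocked 1 h at 37 °C, incubated 1 h at RT on glutaraldehyde-fixed (0.1%, 12 min, 37 °C) cMet-overexpressing 3T3 cells (10^5 per well). Binding read out by HRP anti-M13 antibody after PBST washing.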

With `CC[C@H](C)[C@@H]1NC(=O)[C@H](Cc2ccc(O)cc2)NC(=O)[C@H]([C@@H](C)O)NC(=O)[C@H](CCC(=O)O)NC(=O)[C@H](CC(C)C)NC(=O)[C@H](CC(=O)O)NC(=O)[C@H](Cc2ccccc2)NC(=O)[C@H](CC(=O)O)NC(=O)[C@@H](NC(=O)[C@H](Cc2ccc(O)cc2)NC(=O)[C@H](CC(=O)O)NC(=O)[C@H](Cc2ccc(O)cc2)NC(=O)[C@H](CC(=O)O)NC(=O)CNC(C)=O)CSSC[C@@H](C(=O)N[C@@H](Cc2c[nH]cn2)C(=O)N[C@@H](CO)C(=O)N[C@@H](Cc2ccc(O)cc2)C(=O)N[C@@H](CC(=O)O)C(=O)N2CCC[C@H]2C(=O)NCC(=O)NCC(=O)NCC(=O)N[C@@H](CCCCNC(=O)c2ccc3c(c2)C(=O)OC32c3ccc(O)cc3Oc3cc(O)ccc32)C(N)=O)NC(=O)[C@H](CCC(=O)O)NC(=O)[C@@H]2CCCN2C1=O` [SEQ ID NO: 390], at cMet-Fc fusion protein, the “Protein ELISA” value amounted to 16.1 fold over background. The “WC ELISA” value in assay [1] is on record as 1.27 fold over background.

For “AGVNSCLGPPTFECYQMGT (Synthetically generated cMet-binding peptide sequence) [SEQ ID NO: 076]”, in the assay with cMet-Fc fusion protein, the “Protein ELISA” value is on record as 5.7 fold over background. Also, the “WC ELISA” value in assay [1] is recorded as 1.20 fold over background.

Regarding “AQAYEWWADESIFNHGYYWGHQ (Synthetically generated cMet-binding peptide sequence) [SEQ ID NO: 470]”, the “Protein ELISA” value with cMet-Fc fusion protein was 3.8 fold over background. Moreover, the “WC ELISA” value in assay [1] was 1.20 fold over background.

As for “AQWGAVDNDWYDWEMEQIWMFE (Synthetically generated cMet-binding peptide sequence) [SEQ ID NO: 491]”, the “Protein ELISA” value with cMet-Fc fusion protein is 3.2 fold over background. In addition, the “WC ELISA” value in assay [1] amounted to 1.23 fold over background.

“GSTMSCWRWGRDAYSCNQMAP (Synthetically generated cMet-binding peptide sequence) [SEQ ID NO: 372]”: in the assay with cMet-Fc fusion protein, the “Protein ELISA” value is 4.6 fold over background. Moreover, the “WC ELISA” value in assay [1] stood at 1.37 fold over background.

Take `CC[C@H](C)[C@H](NC(=O)[C@H](C)NC(=O)[C@H](CCC(=O)O)NC(=O)[C@H](C)NC(=O)[C@@H](NC(=O)CNC(=O)[C@@H](NC(=O)[C@H](CCC(N)=O)NC(=O)[C@H](C)NC(C)=O)C(C)C)[C@@H](C)O)C(=O)N[C@@H](CCSC)C(=O)N[C@@H](Cc1ccccc1)C(=O)N[C@@H](CO)C(=O)N[C@@H](CC(=O)O)C(=O)N[C@H](C(=O)N[C@@H](CCC(=O)O)C(=O)N[C@@H](CC(=O)O)C(=O)N[C@H](C(=O)NCC(=O)N[C@H](C(=O)N[C@@H](Cc1c[nH]cn1)C(=O)N[C@@H](CCCCN)C(=O)N[C@@H](Cc1ccccc1)C(=O)NCC(=O)NCC(=O)NCC(=O)N[C@@H](CCCCNC(=O)c1ccc2c(c1)C(=O)OC21c2ccc(O)cc2Oc2cc(O)ccc21)C(N)=O)C(C)C)[C@@H](C)O)C(C)C` [SEQ ID NO: 459]: the “Protein ELISA” value on cMet-Fc fusion protein came out at 5.7 fold over background. Moreover, the “WC ELISA” value in assay [1] worked out at 1.33 fold over background.

Consider “GSTKVCHEKWNQLFCHNQAP (Synthetically generated cMet-binding peptide sequence) [SEQ ID NO: 368]”, for which the “Protein ELISA” value with cMet-Fc fusion protein was 7.0 fold over background. In assay [1], the “WC ELISA” value turned out to be 1.27 fold over background.

Take “AGSWECTGPPSFHCQWYGT (Synthetically generated cMet-binding peptide sequence) [SEQ ID NO: 070]”: the “Protein ELISA” value with cMet-Fc fusion protein is 3.9 fold over background. Moreover, the “WC ELISA” value in assay [1] came to 1.37 fold over background.

“GSLIICWWSWCDKQAP (Synthetically generated cMet-binding peptide sequence) [SEQ ID NO: 009]”: the “Protein ELISA” value with cMet-Fc fusion protein was 3.8 fold over background. The “WC ELISA” value in assay [1] was 1.27 fold over background.

For “AGLYLCDLSIMYCFFQGT (Synthetically generated cMet-binding peptide sequence) [SEQ ID NO: 015]”, the “Protein ELISA” value with cMet-Fc fusion protein is given as 4.3 fold over background. Moreover, the “WC ELISA” value in assay [1] is 1.33 fold over background.

Regarding “GDGFLCRWENGWCEFWDP (Synthetically generated cMet-binding peptide sequence) [SEQ ID NO: 047]”, the “Protein ELISA” value with cMet-Fc fusion protein came to 4.7 fold over background. For the same compound, the “WC ELISA” value in assay [1] is on record as 1.30 fold over background.

With “GSSARCDELINDFHSCLVMAP (Synthetically generated cMet-binding peptide sequence) [SEQ ID NO: 375]”, the “Protein ELISA” value in the assay with cMet-Fc fusion protein is listed as 4.3 fold over background. Moreover, the “WC ELISA” value in assay [1] was 1.33 fold over background.

Regarding “AQMWHRVHDPGYTFEVTWLWDN (Synthetically generated cMet-binding peptide sequence) [SEQ ID NO: 488]”, the “Protein ELISA” value with cMet-Fc fusion protein is recorded as 3.0 fold over background. Moreover, the “WC ELISA” value in assay [1] was found to be 1.27 fold over background.

In the case of “AGLPKCSGPPWFSCYYGGT (Synthetically generated cMet-binding peptide sequence) [SEQ ID NO: 066]”, in the assay with cMet-Fc fusion protein, the “Protein ELISA” value turned out to be 13.5 fold over background. Further, the “WC ELISA” value in assay [1] worked out at 1.30 fold over background.

As for “AQHVVTLTLIQMPFAFNFEPRM (Synthetically generated cMet-binding peptide sequence) [SEQ ID NO: 484]”, the “Protein ELISA” value with cMet-Fc fusion protein is 3.1 fold over background. In assay [1], the “WC ELISA” value turned out to be 1.30 fold over background.

Regarding `CSCC[C@H](NC(=O)CNC(=O)[C@@H]1CCCN1C(=O)[C@H](CO)NC(=O)[C@H](CO)NC(=O)[C@H](Cc1c[nH]c2ccccc12)NC(=O)[C@H](CCCNC(=N)N)NC(=O)[C@H](CCC(N)=O)NC(=O)[C@H](C)NC(C)=O)C(=O)N[C@@H](CO)C(=O)N[C@@H](CCC(N)=O)C(=O)N[C@@H](CO)C(=O)N[C@@H](Cc1ccccc1)C(=O)N[C@H](C(=O)N[C@@H](CC(C)C)C(=O)N[C@@H](CCC(=O)O)C(=O)N[C@@H](Cc1c[nH]c2ccccc12)C(=O)N[C@@H](CCCCN)C(=O)N[C@@H](Cc1c[nH]c2ccccc12)C(=O)N[C@@H](CC(N)=O)C(=O)N[C@@H](CC(=O)O)C(=O)N[C@@H](CC(N)=O)C(=O)NCC(=O)NCC(=O)NCC(=O)N[C@@H](CCCCNC(=O)c1ccc2c(c1)C(=O)OC21c2ccc(O)cc2Oc2cc(O)ccc21)C(N)=O)C(C)C` [SEQ ID NO: 453], at cMet-Fc fusion protein, the “Protein ELISA” value is on record as 11.3 fold over background. The “WC ELISA” value in assay [1] is on record as 1.30 fold over background.

Regarding “AGYYGCKGPPTFECQWMGT (Synthetically generated cMet-binding peptide sequence) [SEQ ID NO: 049]”, the “Protein ELISA” value in the assay with cMet-Fc fusion protein stood at 13.8 fold over background. In assay [1], the “WC ELISA” value was 1.33 fold over background.

In the case of `CC[C@H](C)[C@H](NC(=O)[C@H](CC(=O)O)NC(=O)CNC(=O)[C@H](C)NC(C)=O)C(=O)N[C@H](C(=O)N[C@H]1CSSC[C@@H](C(=O)N[C@@H](Cc2c[nH]c3ccccc23)C(=O)N[C@@H](CO)C(=O)N[C@@H](Cc2c[nH]c3ccccc23)C(=O)NCC(=O)N[C@H](C(=O)NCC(=O)NCC(=O)NCC(=O)N[C@@H](CCCCNC(=O)c2ccc3c(c2)C(=O)OC32c3ccc(O)cc3Oc3cc(O)ccc32)C(N)=O)[C@@H](C)O)NC(=O)[C@H](CCC(=O)O)NC(=O)[C@H](Cc2ccccc2)NC(=O)[C@H](Cc2ccc(O)cc2)NC(=O)[C@@H]2CCCN2C(=O)[C@H](Cc2c[nH]cn2)NC(=O)CNC(=O)[C@H]([C@@H](C)O)NC1=O)C(C)C` [SEQ ID NO: 068], the “Protein ELISA” value at cMet-Fc fusion protein is 6.3 fold over background. Further, the “WC ELISA” value in assay [1] was determined as 1.33 fold over background.
